We go through 4 molecules from patent publication US20050226863A1 (MIT, published 2005).

One may read the Kd as the concentration at which binding is half-saturated.

Experiment [1] concerns the target T1, peptide consisting of the first 20 amino acids of htt, MATLEKLMKAFESLKSFQQQ-biotin (C-terminal biotin).
T1 construct: Synthesized to contain three glutamines; also called huntingtin peptide; huntingtin peptide antigen
T1 peptide: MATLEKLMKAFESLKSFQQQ
Kind of experiment: titration of yeast surface displayed intrabody with biotinylated peptide, flow cytometry. As for the experimental part: (§1) Both intrabodies are equally capable of partially blocking aggregation when overexpressed at high levels. *** p<0.001. FIG. 24D is a schematic homology model that includes mutations obtained during engineering; model contains residues present before mutagenesis. Mutations observed after mutagenesis and sorting were F371, Y51D, K67R, and A75T.
(§2) Yeast surface display. […] Yeast surface display labeling experiments to measure expression and binding were conducted as previously described (Boder, E. T. et al., Methods Enzymol 328: 430-444, 2000). A peptide consisting of the first 20 amino acids of htt was used as the antigen ([…]-biotin (SEQ ID NO:9), synthesized by the MIT biopolymers lab). The antigen was synthesized to contain three glutamines because the beginning of the polyglutamine region would be an ideal target for interfering with the misfolding of htt exon I. Affinity maturation of VL,C22V,C89A relied upon protocols previously described (Colby, D. W. et al., Methods Enzymol 388: 348-358, 2004). Briefly, the VL,C22V,C89A gene was used as the template for the creation of a library of point mutants through error-prone PCR using nucleotide analogues. […]

The target in experiment [2] is T1, peptide consisting of the first 20 …. Kind of experiment: yeast surface display, flow cytometry with huntingtin peptide (method not restated in the sentence). On the procedure: as §1, §2
For orientation: A flow cytometer gives signals particle by particle.

The target is the same in experiment [3]. As to the kind of experiment: yeast surface display, flow cytometry with huntingtin peptide. On the procedure:
as §1, §2

Experiment [4] has the same target. As to the kind of experiment: yeast surface display titration. On the procedure: as §1, §2
Experiment [5] shares this target. Kind of experiment: yeast surface display, flow cytometry. As for the experimental part: as §1, §2
Experiment [6] shares this target. Kind of experiment: titration of yeast surface displayed intrabody with biotinylated peptide, flow cytometry; Example 4 text's estimate from FIG. 24B. The text has this:
A peptide consisting of the first 20 amino acids of htt was used as the antigen ([…]-biotin (SEQ ID NO:9), synthesized by the MIT biopolymers lab). The antigen was synthesized to contain three glutamines because the beginning of the polyglutamine region would be an ideal target for interfering with the misfolding of htt exon I. Affinity maturation of VL,C22V,C89A relied upon protocols previously described (Colby, D. W. et al., Methods Enzymol 388: 348-358, 2004). Briefly, the VL,C22V,C89A gene was used as the template for the creation of a library of point mutants through error-prone PCR using nucleotide analogues. The resulting PCR products were amplified and transformed into yeast along with digested pCTCON (a yeast surface display vector) to create a library through homologous recombination (Raymond, C. K. et al., Biotechniques 26: 134-138, 140-141, 1999). […] These mutants were then used as the template in the next round of library generation. The entire process, from library generation to isolation of improved mutants, was repeated three times to yield VL12.3. FACS sorting was performed using a Cytomation Moflo FACS machine by the staff of the MIT Flow cytometry core facility. All constructs and clones were sequenced at the MIT biopolymers lab.
Intrabody lacking disulflde bond engineered for high affinity by directed evolution. […]

Experiment [7] has the same target. Kind of experiment: antigen binding curves of yeast surface displayed VL mutants, flow cytometry; figure legend's estimate from FIG. 24B. On the procedure:
as §1, §2

Experiment [8] deals with httex1Q97-GFP, P42858. Kind of experiment: cell-based or functional assay.

Numbering of substitutions follows the chain as printed. Numbers in names are those of the source.

B1: VL (anti-huntingtin single-domain antibody, variable light chain only), yeast-surface displayed (other)
VL: QPVLTQSPSVSAAPRQRVTISCSGSNSNIGSNTVNWFQQLPGRAPELLMYYDDLLAPGVSDRFSGSKSGTSASLAISGLQSEDEADYYCATWDDSLNGWVFGGGTKVTVLS
notes: Single human VL domain with its disulfide bond; also called SDAb; SDIb
Turning to B1, the Kd in experiment [1] is roughly 30 nM; in experiment [2], 30 to 50 nM.

B2: VL,C22V,C89A (disulfide-free VL), yeast-surface displayed (other)
VL: B1 VL with C22V, C89A
notes: also called disulfide-free antibody; disulfide knock-out
Turning to B2, in experiment [1], the Kd is greater than 10000 nM. In addition, the “fold decrease in affinity against the SDAb with its disulfide bond” value in experiment [3] is roughly 100 fold. For the same molecule, the “fold difference in affinity against VL” value in experiment [4] is roughly 1000 fold.

B3: engineered (affinity matured) disulfide-free SDIb of Examples 1 and 3 (other)
VL: SRPVLTQSPSVSAAPRQRVTISVSGSNSNIGSNTVNWIQQLPGRAPELLMYDDDLLAPGVSDRFSGSRSGTSASLTISGLQSEDEADYYAATWDDSLNDWVFGGGTKVTVLS
notes: expressed in yeast cytoplasm for the aggregation assay (construct not described); also called engineered SDIb
Regarding B3, the equilibrium dissociation constant (Kd) in experiment [5] is roughly 10 nM.

B4: VL12.3 (other)
VL: MGSQPVLTQSPSVSAAPRQRVTISVSGSNSNIGSNTVNWIQQLPGRAPELLMYDDDLLAPGVSDRFSGSRSGTSASLTISGLQSEDEADYYAATWDDSLNGWVFGGGTKVTVLSGHHHHHH
notes: It carries N-terminal MGS and C-terminal GHHHHHH, which is the his6 intrabody form; also called engineered intrabody VL12.3; Ad-VL12.3 (adenovirus carrying the gene)
B4: the results for the equilibrium dissociation constant (Kd) in experiment [6] and in experiment [7] were roughly 5 nM and roughly 3 nM, respectively. Besides, the formation of aggregates in ST14A cells, 1:1 intrabody:htt plasmid ratio in experiment [8] was found to be 80 % reduction. Moreover, in experiment [8], the formation of aggregates in ST14A cells, higher intrabody:htt plasmid ratios was greater than 90 % reduction.
